Measurements taken from the supplement of paper PMC9233669.
Fewer inactive variants are shown than the library holds.

Key:
biotinyl-Val-oxazolone = assay: self-aminoacylation, catalytic enhancement (BVO) (fold over background); higher = more active; k-Seq, kA / k0A0; sequences stand for … in GGGAAUGGAUCCACAUCUACGAAUUC…UUCACUGCAGACUUGACGAAGCUG
Method in brief: (§1)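 Working in 50 μL HEPES/NaCl/KCl/MgCl2/CaCl2 buffer with 5% acetonitrile at pH 6.9–7.0, mutagenized RNA pools (0.43 μM; 21-nt variable region) were reacted with 2–1250 μM of each biotinyl-aminoacyl-oxazolone for 90 minutes at room temperature. Streptavidin capture followed, with quantification by triplicate qPCR and Illumina sequencing. Catalytic enhancement is reported as median kA over the uncatalyzed rate, the low-activity peak of a bimodal Gaussian fit to the data.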

biotinyl-Trp-oxazolone = assay: self-aminoacylation, catalytic enhancement (BWO) (fold over background); higher = more active; k-Seq, kA / k0A0; sequences stand for … in GGGAAUGGAUCCACAUCUACGAAUUC…UUCACUGCAGACUUGACGAAGCUG
Method in brief: as §1

biotinyl-Met-oxazolone = assay: self-aminoacylation, catalytic enhancement (BMO) (fold over background); higher = more active; k-Seq, kA / k0A0; sequences stand for … in GGGAAUGGAUCCACAUCUACGAAUUC…UUCACUGCAGACUUGACGAAGCUG
Method in brief: as §1

biotinyl-Ile-oxazolone = assay: self-aminoacylation, catalytic enhancement (BIO) (fold over background); higher = more active; k-Seq, kA / k0A0; sequences stand for … in GGGAAUGGAUCCACAUCUACGAAUUC…UUCACUGCAGACUUGACGAAGCUG
Method in brief: as §1

biotinyl-Leu-oxazolone = assay: self-aminoacylation, catalytic enhancement (BLO) (fold over background); higher = more active; k-Seq, kA / k0A0; sequences stand for … in GGGAAUGGAUCCACAUCUACGAAUUC…UUCACUGCAGACUUGACGAAGCUG
Method in brief: as §1

biotinyl-Phe-oxazolone = assay: self-aminoacylation, catalytic enhancement (BFO) (fold over background); higher = more active; k-Seq, kA / k0A0; sequences stand for … in GGGAAUGGAUCCACAUCUACGAAUUC…UUCACUGCAGACUUGACGAAGCUG
Method in brief: as §1

Sequence	self-aminoacylation (biotinyl-Val-oxazolone)	self-aminoacylation (biotinyl-Trp-oxazolone)	self-aminoacylation (biotinyl-Met-oxazolone)	self-aminoacylation (biotinyl-Ile-oxazolone)	self-aminoacylation (biotinyl-Leu-oxazolone)	self-aminoacylation (biotinyl-Phe-oxazolone)
CCUCACUUCAAGCAAUCGAUC [Fam1B.1 aminoacylation ribozyme variant]	0.691	0.672	0.482	0.494	0.453	1.71
CCUCACUUCAAGCAGUCGGUC [Fam1B.1 aminoacylation ribozyme variant]	0.855	0.928	0.646	0.786	0.892	1.1
CCUCACUUGAAGCAAUCGGUC [Fam1B.1 aminoacylation ribozyme variant]	0.678	0.664	0.679	0.636	0.607	0.809
CGAAACUUCAAGCAAUCGGUC [Fam1B.1 aminoacylation ribozyme variant]	1.18	5.43	0.901	1.17	0.993	7.94
CGACACCUCAAGCAAUCGGUC [Fam1B.1 aminoacylation ribozyme variant]	1.06	1.17	1.03	0.973	0.749	1.16
CGACACUUAAAGCAAUCGGUC [Fam1B.1 aminoacylation ribozyme variant]	0.95	0.792	0.956	0.886	0.849	1.13
CGACACUUCAAACAAUCGGUC [Fam1B.1 aminoacylation ribozyme variant]	1.64	12.5	1.31	1.23	1.71	22.9
CGACACUUCAAGAAAUCGGUC [Fam1B.1 aminoacylation ribozyme variant]	1.26	2.88	1.25	1.62	1.24	3.41
CGACACUUCAAGCAAUCGAUC [Fam1B.1 aminoacylation ribozyme variant]	0.727	0.715	0.582	0.672	0.611	0.965
CGACACUUCAAGCAAUCGGAC [Fam1B.1 aminoacylation ribozyme variant]	1.31	1.31	1.74	1.67	1.57	1.21
CGACACUUCAAGCAAUCGUUC [Fam1B.1 aminoacylation ribozyme variant]	0.946	0.465	0.629	0.778	0.669	1
CGACACUUCAAGCAAUCUGUC [Fam1B.1 aminoacylation ribozyme variant]	0.51	0.416	0.52	0.554	0.411	0.656
CGACUUCAAACAAUCGGGCUG [Fam1A.1 aminoacylation ribozyme variant]	2.73	12.7	2.05	2.45	2.34	10.4
CGACUUCAAACAAUCUGUCUG [Fam1A.1 aminoacylation ribozyme variant]	0.86	1.84	0.815	0.926	0.664	3.02
CGACUUCAAACAAUGGGUCUG [Fam1A.1 aminoacylation ribozyme variant]	1.09	0.968	1.2	1.2	0.941	0.777
CGACUUCAAACAUUCGGUCUG [Fam1A.1 aminoacylation ribozyme variant]	1.96	2.1	1.49	1.81	1.43	8.04
CGACUUCAAACCAUCGGUCUG [Fam1A.1 aminoacylation ribozyme variant]	1.08	0.886	0.807	0.838	0.811	0.966
CGACUUCAUACAAUCGGUCUG [Fam1A.1 aminoacylation ribozyme variant]	0.904	0.879	0.796	0.939	0.738	1.01
CGUACCCUGGUCAUCGAGUGA [Fam2.1 aminoacylation ribozyme variant]	5.62	10.9	8.76	4.66	9.81	10.1
CGUCACCUAGGUCAUCGGGUG [Fam2.2 aminoacylation ribozyme variant]	5.16	6	3.71	3.51	4.11	28.9
CUAAUACAAACAAUCGGUCUG [Fam1A.1 aminoacylation ribozyme variant]	0.682	0.678	0.674	0.676	0.477	0.757
CUAAUGCAAACAAUCGGUCUG [Fam1A.1 aminoacylation ribozyme variant]	0.577	0.581	0.631	0.612	0.55	0.853
CUAAUUCAAACAAUCGGGCUG [Fam1A.1 aminoacylation ribozyme variant]	0.852	1.14	0.87	0.805	1.02	1.49
CUAAUUCAAACAGUCGGUCUG [Fam1A.1 aminoacylation ribozyme variant]	0.853	0.523	0.731	0.839	0.915	0.62
CUAAUUCAACCAAUCGGUCUG [Fam1A.1 aminoacylation ribozyme variant]	0.741	1.19	0.63	0.66	0.676	2.11
CUAAUUCAAUCAAUCGGUCUG [Fam1A.1 aminoacylation ribozyme variant]	0.72	2.7	0.742	0.805	0.735	4.62

Sequence	self-aminoacylation (biotinyl-Val-oxazolone)	self-aminoacylation (biotinyl-Trp-oxazolone)	self-aminoacylation (biotinyl-Met-oxazolone)	self-aminoacylation (biotinyl-Ile-oxazolone)	self-aminoacylation (biotinyl-Leu-oxazolone)	self-aminoacylation (biotinyl-Phe-oxazolone)
CUACAACAAACAAUCGGUCUG [Fam1A.1 aminoacylation ribozyme variant]	0.642	0.491	0.496	0.646	0.743	0.946
CUACAAUUCAAGCAAUCGGUC [Fam1B.1 aminoacylation ribozyme variant]	0.779	1.61	0.819	0.902	0.75	2.71
CUACACUUAAAGCAAUCGGUC [Fam1B.1 aminoacylation ribozyme variant]	0.738	0.459	0.713	0.786	0.696	0.694
CUACACUUCAAGCAAUCGGCC [Fam1B.1 aminoacylation ribozyme variant]	1.75	5.03	1.69	1.82	2.41	6.22
CUACACUUCAAGCAAUCGGUG [Fam1B.1 aminoacylation ribozyme variant]	2.61	4.25	3.49	2.71	4.94	5.79
CUACACUUCAAGCACUCGGUC [Fam1B.1 aminoacylation ribozyme variant]	0.945	0.614	0.786	0.886	0.757	0.867
CUACACUUCAAGCAGUCGGUC [Fam1B.1 aminoacylation ribozyme variant]	0.758	0.628	0.739	0.775	0.741	0.895
CUACACUUCUAGCAAUCGGUC [Fam1B.1 aminoacylation ribozyme variant]	0.635	0.565	0.572	0.706	0.669	0.693
CUACACUUUAAGCAAUCGGUC [Fam1B.1 aminoacylation ribozyme variant]	0.74	0.565	0.63	0.768	0.585	0.979
CUACAUCAAACAAUCGGACUG [Fam1A.1 aminoacylation ribozyme variant]	0.974	0.749	0.804	1.1	0.586	1.11
CUACAUCAAACAAUCGGCCUG [Fam1A.1 aminoacylation ribozyme variant]	1.25	2.21	1.35	1.25	1.41	2.89
CUACAUCAAACAAUCGGUCCG [Fam1A.1 aminoacylation ribozyme variant]	0.872	0.83	1.1	0.838	0.805	0.932
CUACAUCAAACCAUCGGUCUG [Fam1A.1 aminoacylation ribozyme variant]	0.932	0.6	0.791	0.834	0.889	1.04
CUACAUCAAAGAAUCGGUCUG [Fam1A.1 aminoacylation ribozyme variant]	0.68	0.67	0.817	0.78	0.592	0.801
CUACAUCAACCAAUCGGUCUG [Fam1A.1 aminoacylation ribozyme variant]	0.781	0.796	0.748	0.643	0.554	1.44
CUACCUCAAACAAGCGGUCUG [Fam1A.1 aminoacylation ribozyme variant]	0.97	1.11	1.57	1.25	0.828	5.07
CUACCUCAAACAAUCGGUCUA [Fam1A.1 aminoacylation ribozyme variant]	0.885	0.934	1.16	1.01	0.89	1.45
CUACGCUUCAAGCAAUCGGUC [Fam1B.1 aminoacylation ribozyme variant]	1.06	29.9	1.14	0.964	1.86	59.9
CUACGUCAAACAUUCGGUCUG [Fam1A.1 aminoacylation ribozyme variant]	3.79	3.07	2.93	2.87	2.5	12.8
CUACUACAAACAAACGGUCUG [Fam1A.1 aminoacylation ribozyme variant]	0.857	0.575	0.673	0.874	0.648	0.827
CUACUACAAACAAUCGGUCUG [Fam1A.1 aminoacylation ribozyme variant]	0.743	0.73	0.634	0.694	0.608	1.24
CUACUACAAACAAUCGGUCUU [Fam1A.1 aminoacylation ribozyme variant]	0.675	0.511	0.565	0.533	0.515	0.658
CUACUACAAACAAUCGUUCUG [Fam1A.1 aminoacylation ribozyme variant]	0.649	0.338	0.468	0.648	0.538	0.604
CUACUACAAACGAUCGGUCUG [Fam1A.1 aminoacylation ribozyme variant]	0.797	0.607	0.915	0.821	0.656	0.437
CUACUACUAACAAUCGGUCUG [Fam1A.1 aminoacylation ribozyme variant]	0.673	0.466	0.729	0.764	0.495	1
